The target in series [1] is T1, ecHrpA FL (Escherichia coli DH5-alpha, UniProt P43329 1-1300).
T1 sequence: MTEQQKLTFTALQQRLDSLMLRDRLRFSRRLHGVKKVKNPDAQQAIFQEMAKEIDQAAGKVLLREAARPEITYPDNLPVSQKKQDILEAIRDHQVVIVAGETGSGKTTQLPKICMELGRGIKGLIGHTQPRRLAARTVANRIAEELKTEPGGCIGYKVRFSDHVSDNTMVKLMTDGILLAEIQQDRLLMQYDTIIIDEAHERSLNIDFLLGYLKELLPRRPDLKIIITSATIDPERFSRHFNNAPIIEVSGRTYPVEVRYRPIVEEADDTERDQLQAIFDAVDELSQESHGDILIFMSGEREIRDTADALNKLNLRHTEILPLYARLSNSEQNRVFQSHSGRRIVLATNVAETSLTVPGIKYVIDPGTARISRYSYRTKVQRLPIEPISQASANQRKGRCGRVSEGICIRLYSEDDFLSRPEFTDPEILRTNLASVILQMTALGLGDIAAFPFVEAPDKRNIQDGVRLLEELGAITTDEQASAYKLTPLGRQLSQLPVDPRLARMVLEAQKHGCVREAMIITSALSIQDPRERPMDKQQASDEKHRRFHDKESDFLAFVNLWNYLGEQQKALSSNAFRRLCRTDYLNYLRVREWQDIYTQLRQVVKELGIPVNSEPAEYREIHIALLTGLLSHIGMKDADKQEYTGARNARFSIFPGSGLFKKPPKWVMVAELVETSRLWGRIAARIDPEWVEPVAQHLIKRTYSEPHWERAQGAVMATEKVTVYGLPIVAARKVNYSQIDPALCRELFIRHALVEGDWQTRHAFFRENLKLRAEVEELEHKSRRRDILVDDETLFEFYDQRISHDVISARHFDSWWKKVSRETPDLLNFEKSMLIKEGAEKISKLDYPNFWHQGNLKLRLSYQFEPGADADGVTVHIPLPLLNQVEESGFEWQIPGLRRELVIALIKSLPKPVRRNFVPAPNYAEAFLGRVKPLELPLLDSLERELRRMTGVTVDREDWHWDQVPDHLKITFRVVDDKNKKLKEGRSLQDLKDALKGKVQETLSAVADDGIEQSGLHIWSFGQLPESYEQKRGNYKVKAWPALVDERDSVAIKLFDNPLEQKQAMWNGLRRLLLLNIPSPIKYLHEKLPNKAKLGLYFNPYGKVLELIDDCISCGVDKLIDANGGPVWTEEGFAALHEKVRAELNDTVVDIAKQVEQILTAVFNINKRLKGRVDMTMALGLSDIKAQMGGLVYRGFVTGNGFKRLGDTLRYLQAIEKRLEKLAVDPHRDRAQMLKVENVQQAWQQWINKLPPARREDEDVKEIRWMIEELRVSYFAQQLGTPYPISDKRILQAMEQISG
The series is described as follows: fluorescence anisotropy. In general terms: In fluorescence polarisation assays a small probe gives low polarisation when free and higher when bound to something large.

For series [2], the target named is T2, ecHrpA1-783,E675A (Escherichia coli DH5-alpha, UniProt P43329 1-783, E675A).
T2 sequence: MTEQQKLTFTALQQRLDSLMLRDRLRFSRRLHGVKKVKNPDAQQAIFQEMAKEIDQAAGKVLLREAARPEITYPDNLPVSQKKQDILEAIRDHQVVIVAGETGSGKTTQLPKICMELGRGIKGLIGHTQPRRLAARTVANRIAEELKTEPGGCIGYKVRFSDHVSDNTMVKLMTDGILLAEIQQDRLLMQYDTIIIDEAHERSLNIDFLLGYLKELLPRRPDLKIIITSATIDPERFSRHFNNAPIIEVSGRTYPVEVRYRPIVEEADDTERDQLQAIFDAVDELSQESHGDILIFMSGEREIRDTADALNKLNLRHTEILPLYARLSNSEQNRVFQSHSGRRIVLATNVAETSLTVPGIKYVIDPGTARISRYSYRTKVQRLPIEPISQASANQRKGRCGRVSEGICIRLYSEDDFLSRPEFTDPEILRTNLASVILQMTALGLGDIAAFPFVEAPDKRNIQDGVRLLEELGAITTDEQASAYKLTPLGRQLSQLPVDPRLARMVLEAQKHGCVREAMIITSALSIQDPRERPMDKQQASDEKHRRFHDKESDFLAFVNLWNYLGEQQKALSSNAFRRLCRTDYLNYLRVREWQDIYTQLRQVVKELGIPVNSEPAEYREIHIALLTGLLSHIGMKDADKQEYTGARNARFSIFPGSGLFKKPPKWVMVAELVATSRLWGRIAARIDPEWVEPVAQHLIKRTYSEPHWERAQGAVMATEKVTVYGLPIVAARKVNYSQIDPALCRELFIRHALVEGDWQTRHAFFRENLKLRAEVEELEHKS
Briefly: fluorescence anisotropy.

B1: FAM-RNABlunt (dsRNA)
RNA 1: GCUGCCAGACCAAAU
RNA 2: AUUUGGUCUGGCAGC
For B1, the binding result in series [1] was “no binding”. In the case of GCUGCCAGACCAAAU (ssRNA) [FAM-RNASS15], the binding signal in series [2] was ~2.2 fold lower RNA binding than ecHrpA1-783. As for TATAAACCAGACCGTC (ssDNA) [FAM-DNASS16], the binding result in series [1] is on record as “no binding”.

Values taken from publication PMC8325345.
